In paper PMC2883946:

Legend:
14-3-3β = 14-3-3β (UniProt Q9CQV8); test: FLAG IP, 14-3-3 isoform immunoblot; conditions: reference: FLAG-AS160 wild type; sites S318,T568,S588,T642,S751
14-3-3ε = 14-3-3ε (UniProt P62259); test: FLAG IP, 14-3-3 isoform immunoblot; conditions: reference: FLAG-AS160 wild type; sites S318,T568,S588,T642,S751

FLAG-AS160 (from UniProt O60343) FLAG-AS160 5P
binding against the reference (14-3-3β): weaker | binding against the reference (14-3-3ε): weaker
